Assay results as given in article PMC12916166 (The Journal of cell biology, 2025).

Molecular target: Aip5C-L (997–1234) (S. cerevisiae, UniProt P43597 997-1233)
Assay: fluorescence polarisation

Aip5C-L (997–1234), sequence (P43597 997-1233): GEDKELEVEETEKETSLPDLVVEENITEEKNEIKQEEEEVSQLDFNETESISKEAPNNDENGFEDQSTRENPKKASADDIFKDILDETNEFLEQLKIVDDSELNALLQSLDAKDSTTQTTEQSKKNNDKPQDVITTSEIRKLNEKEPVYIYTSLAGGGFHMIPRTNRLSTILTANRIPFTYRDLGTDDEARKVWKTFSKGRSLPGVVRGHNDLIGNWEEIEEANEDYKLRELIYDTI

B1: Bud6 (1–145)-kCk-Alexa488 (domain or fragment, S. cerevisiae, UniProt P41697 1-145, looked up)
chain: MKMAVDDPTYGTPKIKRTASSSSSIETTVTKLLMSTKHLLQVLTQWSKGTTSGRLVSDAYVQLGNDFKVVSKFFMHAKVDMSDVGDVPMALRRVLEVTLREPPSDETLNKHLPKIREIIVTLLDKLKVKQAILKNMQQEHRISVK
modifications: Alexa488 maleimide on the single cysteine of the C-terminal KCK sequence
- Kd: 85 nM
